We go through one protein from paper PMC5966032 (Nature, 2018).

This series concerns the molecule itself. Briefly: crystal structure.

B1: Δ25 construct of chicken ASIC1a (domain or fragment, UniProt Q1XA76 25-463, looked up)
chain: SSTLHGISHIFSYERLSLKRVVWALCFMGSLALLALVCTNRIQYYFLYPHVTKLDEVAATRLTFPAVTFCNLNEFRFSRVTKNDLYHAGELLALLNNRYEIPDTQTADEKQLEILQDKANFRNFKPKPFNMLEFYDRAGHDIREMLLSCFFRGEQCSPEDFKVVFTRYGKCYTFNAGQDGKPRLITMKGGTGNGLEIMLDIQQDEYLPVWGETDETSFEAGIKVQIHSQDEPPLIDQLGFGVAPGFQTFVSCQEQRLIYLPPPWGDCKATTGDSEFYDTYSITACRIDCETRYLVENCNCRMVHMPGDAPYCTPEQYKECADPALDFLVEKDNEYCVCEMPCNVTRYGKELSMVKIPSKASAKYLAKKYNKSEQYIGENILVLDIFFEALNYETIEQKKAYEVAGLLGDIGGQMGLFIGASILTVLELFDYAYEVIKHR
On to B1, for which the binding result is recorded as “binds”.
